The values that follow come from US20250236663A1.

Assay [1] has as its target Recombinant human FAM19A5 protein (His-tagged) (human) (UniProt Q7Z5A7). Briefly: ELISA on coated His-tagged FAM19A5 (positive control); the bar ends at the top of the axis.
The target of assay [2] is FAM19A5 epitope fragment F6 (BSA-conjugated) (human). Briefly: ELISA on the coated BSA-conjugated fragment. (In an ELISA, binding on a coated surface is turned into a signal by an enzyme label.)
Assay [3] has as its target FAM19A5 epitope fragment F2 (BSA-conjugated) (human). Briefly: ELISA on the coated BSA-conjugated fragment.
For assay [4], the target named is FAM19A5 epitope fragment F3 (BSA-conjugated) (human). Briefly: ELISA on the coated BSA-conjugated fragment.
Assay [5] addresses FAM19A5 epitope fragment F4 (BSA-conjugated) (human). Briefly: ELISA on the coated BSA-conjugated fragment.
Assay [6] deals with FAM19A5 epitope fragment F1 (BSA-conjugated) (human). Briefly: ELISA on the coated BSA-conjugated fragment.
Assay [7] addresses Recombinant human FAM19A5 protein (His-tagged) (human) (UniProt Q7Z5A7). Briefly: ELISA, N'-Term His; R² 0.9422.
For assay [8] the target is unchanged. Briefly: ELISA, N'-Term His. On the set-up: unit not given here.

B1: Anti-FAM19A5 (P2-C12) (antibody, V domains shown)
VH: QSLEESGGRLVTPGTPLTLTCTVSGFSLSTYAVTWVRQAPGKGLEWIGYINWRGGTSYANWAKGRFTISKTSSTTVDLKMTSPTTEDTATYFCARDASSGAAFGSYGMDPWGPGTLVTVSS
VL: ELDMTQTPSSVSAAVGGTVTIKCQASQSISSYLSWYQQKPGQPPKLLIYEASKLASGVPSRFSGSGYGTEFTLTISDLECADAATYYCQQGYSSTNVWNAFGGGTNVEIK
In general, Kd refers to the concentration at which binding is half-saturated. Turning to B1, the O.D (492nm) was determined as 4 in assay [1]; 0.139 in assay [2]; 0.394 in assay [3]; 0.224 in assay [4]; 0.162 in assay [5]; 0.139 in assay [6]. Also, the Kd in assay [7] turned out to be 7.64 nM. Moreover, the Bmax in assay [8] was determined as 1.73.
